# Experimental data: patent US20130011436A1
# Molecular target: CXCR4 on murine 4T1 breast carcinoma cells (murine) (UniProt P70658)
# Assay: cell-based or functional assay
# UniProt P70658, sequence (P70658 whole entry): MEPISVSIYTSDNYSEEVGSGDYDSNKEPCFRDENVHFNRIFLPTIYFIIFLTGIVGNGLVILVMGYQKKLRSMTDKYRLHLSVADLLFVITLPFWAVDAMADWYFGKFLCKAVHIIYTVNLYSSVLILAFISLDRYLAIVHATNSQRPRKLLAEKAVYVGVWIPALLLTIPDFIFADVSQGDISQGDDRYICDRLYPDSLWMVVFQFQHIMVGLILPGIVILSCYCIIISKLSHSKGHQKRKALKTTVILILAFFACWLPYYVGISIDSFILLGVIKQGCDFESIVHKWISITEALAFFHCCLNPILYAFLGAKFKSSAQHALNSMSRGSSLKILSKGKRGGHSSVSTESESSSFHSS
substance,measurement,value
CTCE-9908 peptide,"inhibition of migration of 4T1 cells toward SDF1 (1,000 ng/ml), transwell assay, antagonist at 100 µg/ml",> 80%
